Paper PMC5458116

System: MBP-ZnF4 (ZnF_1012 fused to GCN4-p-LI coiled coil) (synthetic construct)
Experiment: EMSA
Details: 5 nM DNA, 5 nM protein, 5 mM Tris-HCl pH 8.5, 210 mM NaCl, 4.8% glycerol, 0.05% Tween 20, 8 mg/l BSA, 30 min, room temperature, 5% native PAGE in 0.5x Tris-borate

Row | Substance | binding signal (fold weaker than unmethylated DNA (N1)) (adenine-N6 methylated, N6-methyladenine at GANTC sites (CcrM in vitro, both strands)) | binding signal (fold preference over methylated DNA (N2)) (unlabelled competitors added)
1 | CcrM-methylated 152 bp PCR fragment with 2 ZnF binding sites | 70 | 
2 | unmethylated 152 bp PCR fragment with 2 ZnF binding sites |  | 70
